Article PMC3616908

B1: N-terminal Rad9 CAD region (yeast two-hybrid fusion) [S. cerevisiae] / Chk1 (yeast two-hybrid fusion) [S. cerevisiae] (parent)
chain 1: MSGQLVQWKSSPDRVTQSAIKEALHSPLADGDMNEMNVPVDPLENKVNSTNIIEGSPKANPNPVKFMNTSEIFQKSLGLLDESPRHDDELNIEVGDNDRPNANILHNERTPDLDRIANFFKSNRTPGKENLLTKYQSSDLEDTPLMLRKKMTFQTPTDPLEQKTFKKLKSDTGFCYYGEQNDGEENASLEVTEADATFVQMAERSADNYDCALEGIVTPKRYKDELSKSGG
chain 2: MSLSQVSPLPHIKDVVLGDTVGQGAFACVKNAHLQMDPSIILAVKFIHVPTCKKMGLSDKDITKEVVLQSKCSKHPNVLRLIDCNVSKEYMWIILEMADGGDLFDKIEPDVGVDSDVAQFYFQQLVSAINYLHVECGVAHRDIKPENILLDKNGNLKLADFGLASQFRRKDGTLRVSMDQRGSPPYMAPEVLYSEEGYYADRTDIWSIGILLFVLLTGQTPWELPSLENEDFVFFIENDGNLNWGPWSKIEFTHLNLLRKILQPDPNKRVTLKALKLHPWVLRRASFSGDDGLCNDPELLAKKLFSHLKVSLSNENYLKFTQDTNSNNRYISTQPIGNELAELEHDSMHFQTVSNTQRAFTSYDSNTNYNSGTGMTQEAKWTQFISYDIAALQFHSDENDCNELVKRHLQFNPNKLTKFYTLQPMDVLLPILEKALNLSQIRVKPDLFANFERLCELLGYDNVFPLIINIKTKSNGGYQLCGSISIIKIEEELKSVGFERKTGDPLEWRRLFKKISTICRDIILIPN

Variants of: B1
Experiment: yeast two-hybrid (β-galactosidase activity)
Details: with Chk1 (yeast two-hybrid fusion) [S. cerevisiae]; parent: 1; read off a plot

Question: Which response does the source give for chain 1 S11A S26A S56A S83A T110A T125A T143A T155A here?
Answer: 0.15 AU

Question: With chain 1 S11A S26A S56A S83A T110A T125A T143A T155A T218A as the variant, how does the response read?
Answer: 0.07 AU

Question: With chain 1 S11A S26A S56A S83A T110A T125A T143A T218A as the variant, how does the response read?
Answer: 0.28 AU

Question: With chain 1 S11A S26A S56A S83A T110A T125A T155A T218A as the variant, how does the response read?
Answer: 0.8 AU

Question: Which response does the source give for chain 1 S11A S26A S56A S83A T110A T143A T155A T218A here?
Answer: 0.59 AU

Question: With chain 1 S11A S26A S56A S83A T125A T143A T155A T218A as the variant, how does the response read?
Answer: 0.2 AU

Question: Which response does the source give for chain 1 S11A S26A S56A T110A T125A T143A T155A T218A here?
Answer: 0.18 AU

Question: With chain 1 S11A S26A S83A T110A T125A T143A T155A T218A as the variant, how does the response read?
Answer: 0.18 AU

Question: Which response does the source give for chain 1 S11A S56A S83A T110A T125A T143A T155A T218A here?
Answer: 0.14 AU

Question: For chain 1 S26A S56A S83A T110A T125A T143A T155A T218A, which response is on record?
Answer: 0.22 AU
